From PMC6355003

B1: Drp1 (dynamin-related protein Drp1), wild type [not stated] / GST-MiD51^133-463, wild type [human] (parent)
chain 1: MEALIPVINKLQDVFNTVGADIIQLPQIVVVGTQSSGKSSVLESLVGRDLLPRGTGIVTRRPLILQLVHVSQEDKRKTTGEENGVEAEEWGKFLHTKNKLYTDFDEIRQEIENETERISGNNKGVSPEPIHLKIFSPNVVNLTLVDLPGMTKVPVGDQPKDIELQIRELILRFISNPNSIILAVTAANTDMATSEALKISREVDPDGRRTLAVITKLDLMDAGTDAMDVLMGRVIPVKLGIIGVVNRSQLDINNKKSVTDSIRDEYAFLQKKYPSLANRNGTKYLARTLNRLLMHHIRDCLPELKTRINVLAAQYQSLLNSYGEPVDDKSATLLQLITKFATEYCNTIEGTAKYIETSELCGGARICYIFHETFGRTLESVDPLGGLNTIDILTAIRNATGPRPALFVPEVSFELLVKRQIKRLEEPSLRCVELVHEEMQRIIQHCSNYSTQELLRFPKLHDAIVEVVTCLLRKRLPVTNEMVHNLVAIELAYINTKHPDFADACGLMNNNIEEQRRNRLARELPSAVSRDKVASGGGGVGDGVQEPTTGNWRGMLKTSKAEELLAEEKSKPIPIMPASPQKGHAVNLLDVPVPVARKLSAREQRDCEVIERLIKSYFLIVRKNIQDSVPKAVMHFLVNHVKDTLQSELVGQLYKSSLLDDLLTESEDMAQRRKEAADMLKALQGASQIIAEIRETHLW
chain 2: MSLQEKLLTYYRNRAAIPAGEQARAKQAAVDICAELRSFLRAKLPDMPLRDMYLSGSLYDDLQVVTADHIQLIVPLVLEQNLWSCIPGEDTIMNVPGFFLVRRENPEYFPRGSSYWDRCVVGGYLSPKTVADTFEKVVAGSINWPAIGSLLDYVIRPAPPPEALTLEVQYERDKHLFIDFLPSVTLGDTVLVAKPHRLAQYDNLWRLSLRPAETARLRALDQADSGCRSLCLKILKAICKSTPALGHLTASQLTNVILHLAQEEADWSPDMLADRFLQALRGLISYLEAGVLPSALNPKVNLFAELTPEEIDELGYTLYCSLSEPEVLLQT

Variants of: B1
Assay: GST pull-down, SDS-PAGE band quantification
Conditions: with GST-MiD51^133-463, wild type [human], read off a plot
[1] = Apo (no nucleotide), parent: 0.15

## chain 1 G401A P402A R403A P404A
1 mM GDP-AlFx, parent: 0.085
  response: 0.05 molar ratio
1 mM GDP, parent: 0.14
  response: 0.05 molar ratio
1 mM GMP-PNP, parent: 0.69
  response: 0.065 molar ratio
1 mM GTP, parent: 0.37
  response: 0.06 molar ratio
[1]
  response: 0.07 molar ratio

## chain 1 K38A
1 mM GDP-AlFx, parent: 0.085
  response: 0.34 molar ratio
1 mM GDP, parent: 0.14
  response: 0.36 molar ratio
1 mM GMP-PNP, parent: 0.69
  response: 0.43 molar ratio
1 mM GTP, parent: 0.37
  response: 0.4 molar ratio
[1]
  response: 0.36 molar ratio
parent: 0.15
  response: 0.36 molar ratio
